In US20050153372A1:

Molecular target: calmodulin (in the CaMKI and calcineurin activity assays)
Test: cell-based or functional assay

inhibition of CaMKI kinase activity in vitro, IC50: 1200 nM
inhibition of calcineurin phosphatase activity in vitro, IC50: 1000 nM
Substance: phosphorylated DARPP-21
